Source: the supplement of paper PMC10126150
± gives the standard deviation of the averaged measurements.

System: ATP
Assay: switch fluorescence ratio, 500 uM ATP over buffer (Cy3 cluster intensity, sum of 5 cycles each) (fold (ratio)); higher = stronger signal-on switching upon ATP binding; sequences stand for … in TCGTCGGCAGCGTCAGATGTGTATAAGAGACAGTTTTTTTTTTTTTTTTTTTTTTTTT…TC
Settings: aptamer strand: ATP DNA aptamer (quencher-CACCTGGGGGAGTATTGCGGAGGAAGG + anchor), 100 nM annealed; ATP concentration: 500 uM
How it was run: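 For every switch-domain sequence, the fluorescence ratio is the mean of per-cluster values, each being summed target-cycle Cy3 intensity over summed buffer-cycle Cy3 intensity. Clusters outside 100-1000 RFU were excluded. On a modified Illumina MiSeq flow-cell, the Cy3-labelled switching-strand clusters were annealed to 100 nM quencher-labelled ATP aptamer, imaged in selection buffer and then after 15 min with 500 uM ATP at 22 °C. Five such cycles were run, with NaOH stripping and re-annealing between them.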
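Also: ATP exposure 15 min at 22 °C before imaging.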

Sequence | switch fluorescence ratio
TGCTGGGGAC | 0.992 ± 0.051
TGCTGGGGGG | 0.981 ± 0.023
TGCTGGGGTT | 0.9764 ± 0.0047
TGCTGGTGTA | 1.02 ± 0.025
TGCTGTACGA | 1.11 ± 0.012
TGCTGTACGG | 1.01 ± 0.046
TGCTGTGGGA | 0.9689 ± 0.006
TGCTGTGTAC | 1.084 ± 0.0095
TGCTGTTCTG | 1.032 ± 0.0019
TGCTTAAGCA | 0.982 ± 0.058
TGCTTAGGTT | 0.988 ± 0.011
TGCTTATGGT | 0.965 ± 0.029
TGCTTCGGGA | 1.1288 ± 0.0008
TGCTTCGTGC | 0.996 ± 0.012
TGCTTCTCCA | 1.03 ± 0.036
TGCTTGAGGG | 1.004 ± 0.0097
TGCTTTACAT | 1.03 ± 0.014
TGCTTTACGG | 1.009 ± 0.0082
TGCTTTTCCG | 1.1 ± 0.07
TGCTTTTGGT | 0.988 ± 0.022
TGGAAAAATT | 1.03 ± 0.04
TGGAAAGAAG | 1.02 ± 0.064

Sequence | switch fluorescence ratio
TGGAAGAGGC | 1.47 ± 0.64
TGGAAGGGTA | 0.9903 ± 0.0012
TGGAAGGTAT | 0.9795 ± 0.0087
TGGAAGGTTG | 0.9808 ± 0.0066
TGGAATGGTG | 1.05 ± 0.015
TGGAATTAGT | 0.986 ± 0.038
TGGACAGGGT | 0.999 ± 0.017
TGGACATGGT | 0.9856 ± 0.005
TGGACCAGTT | 1.008 ± 0.0033
TGGACGAAGT | 1.01 ± 0.023
TGGACGTGTC | 1 ± 0.019
TGGACTATTA | 1.015 ± 0.01
TGGACTTTTT | 0.971 ± 0.057
TGGAGAAATA | 1.01 ± 0.048
TGGAGATTAG | 1.01 ± 0.054
TGGAGCGGTT | 1.03 ± 0.032
TGGAGGAGAG | 0.99 ± 0.018
TGGAGGGGCA | 1.03 ± 0.022
TGGAGGGGGT | 1.09 ± 0.28
TGGAGTAATT | 1.06 ± 0.063
TGGAGTCGTG | 0.9729 ± 0.0091
TGGATAAGAG | 0.975 ± 0.019

Sequence | switch fluorescence ratio
TGGATATAGT | 0.9937 ± 0.0038
TGGATATGGG | 1.01 ± 0.028
TGGATCAAAT | 0.9705 ± 0.0049
TGGATGAAGT | 1 ± 0.047
TGGATGATTG | 0.984 ± 0.022
TGGATGCATT | 1.03 ± 0.015
TGGATGGGTA | 1.22 ± 0.33
TGGATGTATG | 0.99 ± 0.04
TGGATGTGGC | 0.963 ± 0.031
TGGATTACGT | 1.018 ± 0.0032
TGGATTGGAT | 1.03 ± 0.035
TGGCAAAATT | 1.01 ± 0.033
TGGCAAAGGA | 0.989 ± 0.026
TGGCAAATGT | 0.9818 ± 0.0049
TGGCAATATT | 2.31 ± 1.6
TGGCACATAT | 1.04 ± 0.054
TGGCATCTTT | 1.02 ± 0.018
TGGCCATCCT | 1.62 ± 0.82
TGGCCCGGGG | 0.988 ± 0.031
TGGCCCTTTT | 1.07 ± 0.13
TGGCCGGGTT | 1.33 ± 0.4
TGGCCGTGCT | 0.904 ± 0.071

Sequence | switch fluorescence ratio
TGGCCTAGTG | 1.002 ± 0.0071
TGGCGAAGGA | 1.018 ± 0.0019
TGGCGAGTCC | 0.973 ± 0.015
TGGCGGCATG | 1.01 ± 0.06
TGGCGGCTTT | 1.01 ± 0.041
TGGCGGGGGG | 0.994 ± 0.035
TGGCGGGGTA | 1.02 ± 0.034
TGGCGGGGTC | 0.9992 ± 0.0094
TGGCGGTATA | 0.993 ± 0.012
TGGCGGTCGG | 1 ± 0.048
TGGCGTGGGA | 1 ± 0.035
TGGCGTTGGT | 0.994 ± 0.056
TGGCTCAGTC | 0.997 ± 0.044
TGGCTCCATT | 1.01 ± 0.034
TGGCTGCAGA | 0.972 ± 0.064
TGGCTGGTAA | 0.991 ± 0.021
TGGCTTGGTA | 1 ± 0.02
TGGCTTGTTT | 0.99 ± 0.058
TGGGAAAGTT | 0.988 ± 0.025
